# Source: US20050232933A1, “CMV-IE1 peptides and method of use” (priority 2003, published 2005)
# Where two headings read alike, the source gives them in different places.
# How the values were obtained:
# [1] = target: HLA A*0201 molecule on the surface of T2 cells (human); settings: remark: other sources report otherwise
# [2] = target: HLA A*0201 molecule on the surface of T2 cells (human); assay: T2 cell HLA-A2 stabilisation, 100 µM peptide for 18 h, BB7.2 flow cytometry
# [3] = target: HLA A*0201 molecule on the surface of T2 cells (human); assay: T2 cell HLA-A2 stabilisation; fold over the mean of no peptide and HLA mismatch B7 peptide
binder,measurement,setting,value
TPRVTGGGAM (modifications not checked) [(-)control B7 T10M],Fold Increase,[1],1 fold
same,peak channel,[1],232
LLSEFCRVL (modifications not checked) [IE1p304-312],peak channel,[2],433
same,Fold Increase,[3],1.8 fold
VLAELVKQI (modifications not checked) [IE1p81-89],peak channel,[2],495
same,Fold Increase,[3],2 fold
